Measurements: US6624139B1, “Hypersensitive response elicitor-induced stress resistance” (Eden Bioscience Corporation, priority 1998, dated 2003)
Positions count from the first letter of the chain named. Several values for one entry are separate records, joined by “and”; a condition that tells them apart may be missing. Identical values can stand only once.

Legend:
[1] = test system: pepper; test: Pepper tolerance to SENCOR herbicide damage; format: in vivo
Text: Pepper seedlings were drenched with hypersensitive response elicitor at 20 ppm seven days before transplanting, sprayed seven days after the transplanting, and then, sprayed every fourteen days. Standard chemicals, Brave, Maneb, Kocide, and Admire, were used for the rest of the treatment. […] The pepper field was applied with the herbicide SENCOR which is not labeled for pepper. This herbicide is known to cause severe foliar damage to pepper in chemically-treated plants but not with hypersensitive response elicitor-treated plants.
The difference between the adverse effect of the herbicide on the hypersensitive response elicitor and non-hypersensitive response elicitor treated plants is dramatic. […] In contrast, 53 out of the 60 chemically-treated pepper plants had severe damage, 40-57% of the leaves were damaged, and 20 plants were dead. The ability of hypersensitive response elicitors to help crops withstand the phytotoxic effects of a herbicide is very important benefit to in agricultural industry.

[2] = test system: Aphids (Aphids gossypii); test: Aphid count per leaf on cotton, field trial; format: in vivo
Text: (§1) Aphids (Aphids gossypii) infect cotton during the entire growth season. The damage of aphid infection ranges from honeydew deposit that contaminates the lint and reduces crop value to defoliation that reduces or destroys crops. To protect plants from aphid infection, cotton is usually sprayed with insecticides, for example Asana XL when the infection pressure is not very high, and Admire when the infestation pressure is high. The effect of a hypersensitive response elicitor on aphids in cotton was studied by a trial involving a randomized complete block design. This involved treatment with Erwinia amylovora hypersensitive response elicitor (i.e. HP-100™) at 20, 60, and 80 ppm and a chemical insecticide, Asana XL, at 8 oz./ac. Each treatment involved foliar application beginning at cotyledon to three true leaves and thereafter at 14 day intervals using a backpack sprayer. Aphid counts and overall growth of the cotton were made immediately prior to spray application at 14, 28, 35, and 42 days after the first treatment (“DAT 1”). Twenty-five randomly selected leaves per plot were collected at the first three sampling dates and the leaves per plot at the final sampling date.

[3] = test system: cotton; test: Insecticide stress tolerance of cotton (defoliation, formed cotton balls); format: in vivo
Text: as §1
2. Hypersensitive response elicitor-treated cotton was more resistant to the damage caused by Pravado (Admire) and Asana. […]

[4] = test system: cucumber; test: Cucumber field trial under drought (survival, flowering, yield); format: in vivo; parameters: Yield/Replicate: unit not given beside the values; conditions: for Yield summed over the three replicates: control 39.3; for Yield/Replicate / kg/plant: replicates I-III; for % of the Yield Increase: versus control; for kg/plant: cucumber fruit yield
Method: A cucumber field trial was set up to test the effect of Erwinia amylovora hypersensitive response elicitor on disease control, tolerance to drought stress, and yield. Three different rates were tested, there at 15, 30, and 60 μg/ml. In addition to hypersensitive response elicitor treatment, there was an untreated control. Each treatment contained three replicate plots. When the first true leaf emerges, hypersensitive response elicitor was sprayed with a back bag sprayer. The second spray was applied ten days after the first spray. The third application was right after the recovery of cucumber seedlings after the transplanting to the field. Individual treatment was randomly assigned in the field.
When the first true leaf emerged (Day 0), a first application was sprayed. Usually cucumber seedlings are transplanted when seedlings show two true leaves. It has been known that the recovery rate after the transplanting is closely related to the size of the seedlings. Because of the drought, the seedlings were maintained in the nursery for an extra ten days and the second spray was applied on Day 10. Two days after the second spray, the plants were transplanted into fields and covered with plastic sheets. The plants had 4-5 true leaves.

[5] = cited from earlier work

B1: HP-1000: Erwinia amylovora hypersensitive response elicitor protein applied to plants by foliar spray or drench (protein, UniProt Q01099 1-403, looked up)
Harpin HrpN: MSLNTSGLGASTMQISIGGAGGNNGLLGTSRQNAGLGGNSALGLGGGNQNDTVNQLAGLLTGMMMMMSMMGGGGLMGGGLGGGLGNGLGGSGGLGEGLSNALNDMLGGSLNTLGSKGGNNTTSTTNSPLDQALGINSTSQNDDSTSGTDSTSDSSDPMQQLLKMFSEIMQSLFGDGQDGTQGSSSGGKQPTEGEQNAYKKGVTDALSGLMGNGLSQLLGNGGLGGGQGGNAGTGLDGSSLGGKGLQNLSGPVDYQQLGNAVGTGIGMKAGIQALNDIGTHSDSSTRSFVNKGDRAMAKEIGQFMDQYPEVFGKPQYQKGPGQEVKTDDKSWAKALSKPDDDGMTPASMEQFNKAKGMIKSAMAGDTGNGNLQARGAGGSSLGIDAMMAGDAINNMALGKLGAA
Number of plants with Damage Rating 1 ([1]; 1 = No damage, 60 plants, SENCOR herbicide, elicitor 20 ppm): 1
Number of plants with Damage Rating 2 ([1]; 2 = 0-20% leaves damaged, 60 plants, SENCOR herbicide): 38
Number of plants with Damage Rating 3 ([1]; 3 = 20-40% leaves damaged, 60 plants, SENCOR herbicide): 17
Number of plants with Damage Rating 4 ([1]; 4 = 40-50% leaves damaged, 60 plants, SENCOR herbicide): 3
Number of plants with Damage Rating 6 ([1]; 6 = More than 75% leaves damaged or entire plant dead, 60 plants, SENCOR herbicide): 0
Plants with only minor damage by the herbicide (damaged leaves less than 20%) ([1]; of 60 plants, SENCOR): Thirty-nine of the 60
Number of plants with Damage Rating 5 ([1]; rating 5 not defined in footnote, 60 plants, SENCOR herbicide): 1
Damage Index % ([1]; sum of rating times number of plants, divided by total plants times 6): 41%
Number of aphids per leaf ([2]; 20 μg/ml a.i., 1 spray, 14 DAT 1): 0.2 a per leaf
Number of aphids per leaf ([2]; 20 μg/ml a.i., 2 sprays, 28 DAT 1): 7.8 b per leaf
Number of aphids per leaf ([2]; 20 μg/ml a.i., 3 sprays, 35 DAT 1): 22.9 b per leaf
Number of aphids per leaf ([2]; 20 μg/ml a.i., 4 sprays, 42 DAT 1): 322.1 a per leaf
Number of aphids per leaf ([2]; 60 μg/ml a.i., 1 spray, 14 DAT 1): 0.1 a per leaf
Number of aphids per leaf ([2]; 60 μg/ml a.i., 2 sprays, 28 DAT 1): 4.9 b per leaf
Number of aphids per leaf ([2]; 60 μg/ml a.i., 3 sprays, 35 DAT 1): 34.6 b per leaf
Number of aphids per leaf ([2]; 60 μg/ml a.i., 4 sprays, 42 DAT 1): 168.3 a per leaf
Number of aphids per leaf ([2]; 80 μg/ml a.i., 1 spray, 14 DAT 1): 0.0 a per leaf
Number of aphids per leaf ([2]; 80 μg/ml a.i., 2 sprays, 28 DAT 1): 2.7 b per leaf
Number of aphids per leaf ([2]; 80 μg/ml a.i., 3 sprays, 35 DAT 1): 25.8 b per leaf
Number of aphids per leaf ([2]; 80 μg/ml a.i., 4 sprays, 42 DAT 1): 510.2 a per leaf
Defoliation of cotton after second chemical spraying ([3]; after Pravado (Admire) applied to all plots, elicitor especially at 80 ppm): no defoliation
No. balls/10 plants/replicate ([3]; formed cotton balls on ten plants in each of four replicates, after insecticide stress, elicitor at 80 ppm): 35
Yield summed over the three replicates ([4]; 15 μg/ml): 103.8
Yield/Replicate ([4]; 15 μg/ml, listed as HP 15): 37.5 and 30.0 and 36.3
% of the Yield Increase ([4]; 15 μg/ml): 241%
Yield summed over the three replicates ([4]; 30 μg/ml): 133.2
Yield/Replicate ([4]; 30 μg/ml, listed as HP 30): 46.2 and 42.9 and 44.1
% of the Yield Increase ([4]; 30 μg/ml): 339%
Final yield relative to control plants ([4]; 30 ppm): three times greater yield
kg/plant ([4]; 15 μg/ml, listed as HP 15): 1.25 kg/plant and 1.00 kg/plant and 1.21 kg/plant
kg/plant ([4]; 30 μg/ml, listed as HP 30): 1.54 kg/plant and 1.43 kg/plant and 1.47 kg/plant
Start of flowering earlier than untreated control ([4]; drought): 14 days
Cucumber seedlings survived after transplanting ([4]; drought, untreated 57%): More than 80%
Cucumber fruits per plant in the first harvest ([4]; drought, virtually no fruit from untreated control): more than 0.4 kilograms

B2: hypersensitive response elicitor polypeptide or protein derived from Erwinia amylovora: hypersensitive response elicitor protein from Erwinia amylovora, amino acid sequence SEQ. ID. No. 3 (protein, listed as Erwinia amylovora)
chain: B1 Harpin HrpN with S281R, D282H, S360R, A361P
Time heat stable at 100° C. [5]: at least 10 minutes
